Results from US20130012436A1 (Bristol-Myers Squibb, published 2013).

Experiments:
human IL-12 = molecular target: T1, human IL-12 (human, UniProt P29459 23-219; P29460 23-328); experiment: SPR, Adnectin captured on immobilized anti-His antibody
T1 construct: heterodimeric cytokine; also called recombinant human IL-12
T1 sequence (looked up) 1: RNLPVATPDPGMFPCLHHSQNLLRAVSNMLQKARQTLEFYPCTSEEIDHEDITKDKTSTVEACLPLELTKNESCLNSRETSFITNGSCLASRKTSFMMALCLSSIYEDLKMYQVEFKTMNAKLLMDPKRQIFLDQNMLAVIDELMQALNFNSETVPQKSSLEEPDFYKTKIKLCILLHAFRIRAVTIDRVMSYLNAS
T1 sequence (looked up) 2: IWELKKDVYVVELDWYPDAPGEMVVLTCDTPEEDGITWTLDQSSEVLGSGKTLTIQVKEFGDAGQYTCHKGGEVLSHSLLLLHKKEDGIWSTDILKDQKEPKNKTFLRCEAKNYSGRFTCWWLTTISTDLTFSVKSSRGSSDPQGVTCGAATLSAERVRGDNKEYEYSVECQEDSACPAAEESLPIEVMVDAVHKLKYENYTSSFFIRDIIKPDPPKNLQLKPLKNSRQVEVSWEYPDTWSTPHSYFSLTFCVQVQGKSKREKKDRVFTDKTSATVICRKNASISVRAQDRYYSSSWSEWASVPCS
Experimental: Adnectins listed in Table 2 as well as ATI001016 were used to examine the biochemical selectivity towards IL-23/IL-12. The binding analysis involved the capture of anti-IL-23 Adnectins on immobilized anti-His antibody followed by flow of IL-23 or IL-12 over the Adnectin. The selectivity of the Adnectins for IL-23 was assessed by comparing the binding signal for a 100 fold higher concentration of IL-12 over IL-23.

human IL-23 [1] = molecular target: T2, human IL-23 (human, UniProt Q9NPF7 20-189; P29460 23-328); experiment: cell-based or functional assay
T2 sequence (looked up) 1: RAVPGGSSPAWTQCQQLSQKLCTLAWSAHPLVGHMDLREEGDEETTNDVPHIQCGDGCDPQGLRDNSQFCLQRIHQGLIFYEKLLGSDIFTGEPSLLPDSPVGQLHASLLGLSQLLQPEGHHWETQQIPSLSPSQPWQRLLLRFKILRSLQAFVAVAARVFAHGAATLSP
T2 sequence (looked up) 2: T1 sequence (looked up) 2

human IL-23 [2] = molecular target: T2, human IL-23; experiment: SPR (ProteOn XPR), human IL-23 directly immobilized, 25 C
Experimental: (§1) The binding characteristics were characterized by Surface Plasmon Resonance (SPR). Human IL-23 was immobilized at two to four levels in one dimension of a ProteOn XPR (Bio-Rad) chip surfaces and exposed to 6 different concentrations of anti-IL-23 adnectins in the other dimension of the same SPR chip surface. This allowed kinetic determination in the absence of regeneration. Duplicate chips were used for kinetic determinations at 25° C. and 37° C. Evaluation of the kinetic parameters was performed using the Langmuir interaction model and constant parameter fitting with the ProteOn Manager software.
(§2) Even at 37° C. the off rates were close to the limit of detection for SPR technologies so it is possible that the reported dissociation constant measurements are under-estimates.

human IL-23 [3] = molecular target: T2, human IL-23; experiment: SPR (ProteOn XPR), human IL-23 directly immobilized, 37 C
Experimental: as §1, §2

human IL-23 [4] = molecular target: T2, human IL-23; experiment: KinExA, solution phase, hIL-23 titrated, unbound ATI001045 captured on IL-23 matrix
Experimental: The solution affinity of ATI001045 for human IL-23 was measured using a Kinetic Exclusion Assay (KinExA). In one format duplicate titrations of hIL-23 were performed for each of three concentrations. The relative unbound ATI001045 concentration was measured by capture on a human IL-23 solid matrix followed by detection with a fluorescently labeled antibody that recognizes the Adnectin scaffold. Due to technical limitations, the lowest concentration that could be tested was 0.75 nM.

human IL-23 [5] = molecular target: T2, human IL-23; experiment: KinExA, solution phase, adnectin titrated, unbound IL-23 captured on non-PEGylated ATI001045 matrix
Experimental: The solution affinity of ATI001045 and ATI001047 for human IL-23 was also measured using an alternate format in the KinExA. Duplicate titrations of adnectins were performed for each of three (ATI001045) or single (ATI001047) concentrations of human IL-23 (quadruplicate for the lowest concentration). The relative unbound human IL-23 concentration was measured by capture on a non-PEGylated ATI001045 solid matrix followed by detection with a fluorescently labeled antibody that recognizes the p40 subunit of hIL-23.

human serum albumin [6] = molecular target: T3, human serum albumin (human, UniProt P02768 25-609); experiment: SPR, HBS-P buffer
T3 construct: also called HSA
T3 sequence (P02768 25-609 limits assumed): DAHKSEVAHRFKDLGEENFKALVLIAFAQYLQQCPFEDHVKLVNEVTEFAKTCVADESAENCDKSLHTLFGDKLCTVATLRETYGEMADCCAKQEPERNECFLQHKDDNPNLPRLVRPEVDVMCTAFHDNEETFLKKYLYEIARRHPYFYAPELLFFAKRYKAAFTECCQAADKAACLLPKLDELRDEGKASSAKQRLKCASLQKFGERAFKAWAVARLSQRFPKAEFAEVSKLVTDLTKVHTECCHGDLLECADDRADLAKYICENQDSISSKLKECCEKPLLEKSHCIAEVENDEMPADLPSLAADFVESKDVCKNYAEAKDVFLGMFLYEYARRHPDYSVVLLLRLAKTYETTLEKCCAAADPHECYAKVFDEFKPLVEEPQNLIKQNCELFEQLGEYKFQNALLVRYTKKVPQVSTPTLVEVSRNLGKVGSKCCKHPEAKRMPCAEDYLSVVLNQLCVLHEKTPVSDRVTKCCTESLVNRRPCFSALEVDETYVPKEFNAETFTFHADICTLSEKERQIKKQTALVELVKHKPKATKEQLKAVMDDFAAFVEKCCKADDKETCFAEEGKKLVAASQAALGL

rhesus serum albumin [7] = molecular target: T4, rhesus serum albumin (rhesus, UniProt Q28522 17-600); experiment: SPR, HBS-P buffer
T4 construct: also called RhSA
T4 sequence (Q28522 17-600 limits assumed): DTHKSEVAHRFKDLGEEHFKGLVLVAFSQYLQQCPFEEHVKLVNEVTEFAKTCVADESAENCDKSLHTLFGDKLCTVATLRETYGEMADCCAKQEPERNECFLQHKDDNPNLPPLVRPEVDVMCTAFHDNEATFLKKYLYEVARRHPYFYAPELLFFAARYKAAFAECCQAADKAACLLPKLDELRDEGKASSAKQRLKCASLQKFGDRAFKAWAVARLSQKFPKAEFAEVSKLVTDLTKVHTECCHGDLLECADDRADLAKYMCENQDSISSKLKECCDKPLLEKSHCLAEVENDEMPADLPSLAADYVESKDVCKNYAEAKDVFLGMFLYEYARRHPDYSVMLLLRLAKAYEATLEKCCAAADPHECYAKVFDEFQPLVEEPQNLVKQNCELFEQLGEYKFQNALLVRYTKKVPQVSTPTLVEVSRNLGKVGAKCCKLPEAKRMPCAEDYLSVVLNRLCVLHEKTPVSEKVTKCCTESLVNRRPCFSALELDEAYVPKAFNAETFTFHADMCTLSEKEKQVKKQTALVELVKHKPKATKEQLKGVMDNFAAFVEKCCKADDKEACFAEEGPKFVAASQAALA

human serum albumin [8] = molecular target: T3, human serum albumin; experiment: SPR, HBS-P buffer, 25 C
rhesus serum albumin [9] = molecular target: T4, rhesus serum albumin; experiment: SPR, HBS-P buffer, 25 C
murine serum albumin = molecular target: T5, murine serum albumin (mouse, UniProt P07724 25-608); experiment: SPR, HBS-P buffer, 25 C
T5 construct: also called MuSA; mouse serum albumin

human serum albumin [10] = molecular target: T3, human serum albumin; experiment: SPR, HBS-P buffer, 37 C
rhesus serum albumin [11] = molecular target: T4, rhesus serum albumin; experiment: SPR, HBS-P buffer, 37 C
human serum albumin [12] = molecular target: T3, human serum albumin; experiment: SPR, MES buffer, pH 5.5
rhesus serum albumin [13] = molecular target: T4, rhesus serum albumin; experiment: SPR, MES buffer, pH 5.5
human serum albumin [14] = molecular target: T3, human serum albumin; experiment: SPR, MES buffer, pH 7.4
rhesus serum albumin [15] = molecular target: T4, rhesus serum albumin; experiment: SPR, MES buffer, pH 7.4
rat serum albumin = rat serum albumin (rat, UniProt P02770 25-608); experiment: SPR and direct binding ELISA
rat serum albumin, sequence (P02770 25-608 limits assumed): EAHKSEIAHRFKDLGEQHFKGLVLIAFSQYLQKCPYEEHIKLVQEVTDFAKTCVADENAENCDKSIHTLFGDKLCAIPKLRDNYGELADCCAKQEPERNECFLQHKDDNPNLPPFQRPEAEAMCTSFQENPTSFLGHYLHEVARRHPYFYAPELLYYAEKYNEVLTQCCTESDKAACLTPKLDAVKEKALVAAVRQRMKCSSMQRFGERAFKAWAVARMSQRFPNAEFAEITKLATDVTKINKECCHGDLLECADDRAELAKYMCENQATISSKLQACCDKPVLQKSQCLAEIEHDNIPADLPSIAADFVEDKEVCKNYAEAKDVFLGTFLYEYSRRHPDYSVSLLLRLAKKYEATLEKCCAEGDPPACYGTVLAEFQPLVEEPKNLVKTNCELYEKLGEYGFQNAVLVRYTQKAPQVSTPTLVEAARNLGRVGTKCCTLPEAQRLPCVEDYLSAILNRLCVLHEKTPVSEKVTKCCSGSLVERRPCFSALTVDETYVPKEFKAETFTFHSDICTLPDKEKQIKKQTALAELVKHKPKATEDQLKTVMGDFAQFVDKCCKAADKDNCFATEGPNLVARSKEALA

B1: ATI001016 (designed binder)
chain: MGVSDVPRDLEVVAATPTSLLISWGHYPLHVRYYRITYGETGGNSPVQEFTVPSRKYTATISGLKPGVDYTITVYAVTYYKEANYREIPISINYRTGSGC
modifications: pegylated at the C-terminal GSGC linker (Cys)
notes: not shown: his-tag
Human IL-12
  binding result: no binding (tested: 1 µM)

B2: ATI001045 (designed binder)
chain: B1 chain
modifications: pegylated at the C-terminal GSGC linker (Cys)
Human IL-23 [1]
  IL-17 production by human T cells, EC50: 2 nM
Human IL-23 [2]
  Kd: 0.17 nM
  koff: 2.5e-05 s⁻¹
  kon: 150000 M⁻¹ s⁻¹
Human IL-23 [3]
  Kd: 0.27 nM
  koff: 5.5e-05 s⁻¹
  kon: 203000 M⁻¹ s⁻¹
Human IL-23 [4]
  Kd: 0.051 nM
Human IL-23 [5]
  Kd: 0.0094 nM

B3: SABA1.2 (designed binder)
chain: MGVSDVPRDLEVVAATPTSLLISWHSYYEQNSYYRITYGETGGNSPVQEFTVPYSQTTATISGLKPGVDYTITVYAVYGSKYYYPISINYRTEIEDEDEDEDED
notes: core 1 with (ED)5 extension
Human serum albumin [6]
  fold increase in affinity at 37 C against 25 C: ~2 fold
Rhesus serum albumin [7]
  affinity at 37 C relative to 25 C: 0.5 fold
Human serum albumin [8]
  Kd: 55.3 nM
  koff: 0.000443 s⁻¹
  kon: 8210 M⁻¹ s⁻¹
Rhesus serum albumin [9]
  Kd: 580 nM
  koff: 0.00378 s⁻¹
  kon: 6600 M⁻¹ s⁻¹
Murine serum albumin
  binding result: no binding (tested: up to 1 µM)
Human serum albumin [10]
  Kd: 24.1 nM
  koff: 0.000815 s⁻¹
  kon: 33800 M⁻¹ s⁻¹
Rhesus serum albumin [11]
  Kd: 977 nM
  koff: 0.0185 s⁻¹
  kon: 18900 M⁻¹ s⁻¹
Human serum albumin [12]
  Kd: 28.6 nM
  koff: 0.00027 s⁻¹
  kon: 9440 M⁻¹ s⁻¹
Rhesus serum albumin [13]
  Kd: 359 nM
  koff: 0.00272 s⁻¹
  kon: 7570 M⁻¹ s⁻¹
Human serum albumin [14]
  Kd: 41.9 nM
  koff: 0.000388 s⁻¹
  kon: 9260 M⁻¹ s⁻¹
Rhesus serum albumin [15]
  Kd: 479 nM
  koff: 0.00295 s⁻¹
  kon: 6160 M⁻¹ s⁻¹
Rat serum albumin
  binding result: no binding (tested: 1 µM)
